The source of these data is the supplement of paper PMC9170038.

This data set deals with MS2 coat protein. As to the kind of experiment: apparent KD of MS2 coat protein; higher = weaker reporter binding. As to conditions: Eterna round: R107. Summed up: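 Each design's apparent KD comes from the median of binding-curve fits to its normalised clusters. Those clusters carried RNA switches transcribed on-chip from Illumina sequencing clusters. SNAP-549-labelled MS2 coat protein was titrated onto them in twofold steps (0.7 or 1.5 nM to 3 µM; per step 0.8–1.5 h down to 10–20 min). Conditions were 100 mM Tris-HCl pH 7.5, 80 mM KCl, 4 mM MgCl2, without or with constant ligand.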

[1] abbreviates: input ligand: theophylline 20 uM.
Where [2] appears, read: input ligand: theophylline 2 mM.
Where [3] appears, read: input ligand: tryptophan 2.4 mM.

Take “CCCAGUUAUAACAAAGGAAUAAUACUCGAAGGAGCGUCAUAGUAGGCAGGUAGGUCGCGAGACAUGAGGAUCACCCAUGUAGAGA [qvvmullin]”: the “apparent KD of MS2 coat protein” value by setting is: (input ligand: arginine 13.2 mM) 34.3 nM; (input ligand: none) 46 nM; under setting [1], 49.5 nM; under setting [2], 32.2 nM; under setting [3], 32.8 nM.
As for “CCGACGAUGACUAUGGGUCAGGAGUGCGUACGAGGACCGGUACGGCCGCCACUCGAGGAGUGGGACAUGAGGAUCACCCAUGUGG [#19 Exclusion Tryptophan A]”, the “apparent KD of MS2 coat protein” value (input ligand: arginine 13.2 mM) stood at 44.6 nM; the “apparent KD of MS2 coat protein” value (input ligand: none) came out at 50.2 nM; the “apparent KD of MS2 coat protein” value under setting [1] was 49.8 nM; the “apparent KD of MS2 coat protein” value under setting [2] turned out to be 54.8 nM; the “apparent KD of MS2 coat protein” value under setting [3] came to 47.8 nM.
In the same order, the values of “CCGCACAUGAGGAUCACCCAUGUCAGGGAUACCAGCCCAGACAUGGGCCCUUGGCAGCCCUGUAGCUGACGAAAGUCAGCAGCGG [Omei Theo A SS A v1]” are 51.9 nM, 31.7 nM, 277 nM, 57.6 nM and 44.7 nM.
For “CCGCCCACGAAUGAUACCAGCUAAAAUCAUGUACCAGACACAUGAGGAUCACCCAUGUAAAGCCCUUGGCAGCGUACGCCACCCG [e-theoB-?]”, the “apparent KD of MS2 coat protein” value was 25.5 nM (input ligand: arginine 13.2 mM), 43.7 nM under setting [1] and 25.8 nM under setting [3].
For “CCGGGCUGUGGAGACAUAGCCCGGACUGAAGGAGCGGGAAUAAACCCAGGUAGGUCGCAGAGAUCCACAUGAGGAUCACCCAUGU [!0.S]”, the “apparent KD of MS2 coat protein” value worked out at 34.4 nM (input ligand: arginine 13.2 mM); 34 nM (input ligand: none); 40.9 nM under setting [1]; 46.8 nM under setting [2]; 36.7 nM under setting [3].
Taken in the same sequence, the figures for “CCGUUAAAAUUCCAUUAUACAAUACCUGAAGGAGCGUAGGAAACUACAGGUAGGUCGCAGAUACAUGAGGAUCACCCAUGUACGG [SSAA #13]” were 14.6 nM, 16.2 nM, 20.3 nM, 22.5 nM and 17.3 nM.
As to “CCUAGCACACAUGAUACCAGCGACAUGAGGAUCACCCAUGUACGGCGUGUAUCGCAAGGUUGCCCUUGGCAGCAUGAUAGUGCUG [Xeerdi]”, the “apparent KD of MS2 coat protein” value (input ligand: arginine 13.2 mM) was found to be 12.7 nM, the “apparent KD of MS2 coat protein” value under setting [1] was 24.7 nM and the “apparent KD of MS2 coat protein” value under setting [3] worked out at 14.2 nM.
Consider “CCUAUAUAGUCGGCCGCCACUGACUACAUGAGGAUCACCCAUGUAACACGAACAUGGUCCUGGAUCAGGACCGGGACUAUAUAGG [Tryp B Ex t5]”, for which the “apparent KD of MS2 coat protein” value runs as follows: (input ligand: arginine 13.2 mM) 16.5 nM; (input ligand: none) 20.7 nM; under setting [1], 24.2 nM; under setting [2], 22.2 nM; under setting [3], 122 nM.
With “CCUAUCCAGUCGGCCGCCACUGACCAUUUGGAACAGUGGGUGAAAACAUGAGGAUCACCCAUGUACAGGACCGGGACUGUAUAGG [Ex Tryptophan B 20]”, the “apparent KD of MS2 coat protein” value stood at 14.7 nM (input ligand: arginine 13.2 mM), 15.7 nM under setting [1] and 13.9 nM under setting [2].
Take “CCUAUGCAGUCGGCCGCCACUGAGUCCUCAAUAAUAAAUUAAUAUACAUGAGGAUCACCCAUGUACAGGACCGGGACUGUAUAGG [Ex Tryptophan B 13]”: the “apparent KD of MS2 coat protein” value (input ligand: arginine 13.2 mM) was found to be 96.7 nM, the “apparent KD of MS2 coat protein” value under setting [1] was determined as 268 nM and the “apparent KD of MS2 coat protein” value under setting [2] came out at 215 nM.
For the sequence “CCUCGGGACCGAAGGAGCGAGAUAACAACAUUGGGUCUCAACACAUGAGGAUCACCCAUGUCUCAGGUAGGUCGCGGUACCAUGG [Exclusion Arginine B GF22]”, the “apparent KD of MS2 coat protein” value came out at 140 nM (input ligand: arginine 13.2 mM); 385 nM (input ligand: none); 275 nM under setting [1]; 387 nM under setting [2]; 182 nM under setting [3].
Take “CCUGAUAACUGAAGGAGCGAGAAACCCUACAUGAGGAUCACCCAUGUAUACACGGGAACUUCUCAGGUAGGUCGCAGUUUGUCAG [Adiso]”: the “apparent KD of MS2 coat protein” value is, setting by setting: (input ligand: arginine 13.2 mM) 48 nM; (input ligand: none) 101 nM; under setting [1], 165 nM; under setting [2], 138 nM; under setting [3], 71.5 nM.
As to “CCUGCGUUUCUUCUUUCGCAGGAGGAUGAUACCAGUAGGGAAACCUACCCUUGGCAGCAUGGGACAUGAGGAUCACCCAUGUGGA [SSThA NP+V+V2 #1]”, the “apparent KD of MS2 coat protein” value was 354 nM (input ligand: arginine 13.2 mM); 503 nM (input ligand: none); 522 nM under setting [1]; 130 nM under setting [2]; 430 nM under setting [3].
On to “CCUGCGUUUCUUUUCUUUCGCAGGAAUGAUACCAGUAGGGAAACCUACCCUUGGCAGCAUGGGACAUGAGGAUCACCCAUGUUUU [SSThA NP+V+V2 #4]”, for which the “apparent KD of MS2 coat protein” value (input ligand: arginine 13.2 mM) is 117 nM, the “apparent KD of MS2 coat protein” value under setting [1] is 202 nM and the “apparent KD of MS2 coat protein” value under setting [3] amounted to 181 nM.
“CGAAUACGAAUUGAUACCAGCAUGUUAACAUGAGGAUCACCCAUGUUAAGGAUAACAUAAUGCCCUUGGCAGCAACGUAAAUUCG [Ab]”: the “apparent KD of MS2 coat protein” value by setting is: (input ligand: arginine 13.2 mM) 16.7 nM; under setting [1], 17.7 nM; under setting [3], 14.4 nM.
Regarding “CGAAUGAAGCAAGAUACCAGUGUAGAUUUAGACAUGAGGAUCACCCAUGUGAGGCAUGAGCACCCUUGGCAGCUUAAGCAGAAAA [theeternabot_sameState_MS2_Theo_B_47]”, the “apparent KD of MS2 coat protein” value is, setting by setting: (input ligand: arginine 13.2 mM) 115 nM; (input ligand: none) 28.7 nM; under setting [1], 25.7 nM; under setting [2], 60.5 nM; under setting [3], 29.4 nM.
Turning to “CGAGUAAGAACAAUCGAAUAACGGUUUUCGCGAGGACCGGUACGGCCGCCACUCGUGUGAAAUAACACAUGAGGAUCACCCAUGU [3'end-1]”, the “apparent KD of MS2 coat protein” value is, setting by setting: (input ligand: arginine 13.2 mM) 23.7 nM; under setting [1], 26.8 nM; under setting [2], 27.3 nM.
